Laboratory results reported in PMC2669960 (The EMBO Journal, 2009).
Read-outs that look alike come from different tables or passages of the source. Blank lines part the entries; values can stand above or below the binder they belong to.

B1: His–Ska1 (N), tag cleaved (domain or fragment)
chain: MASSDLEQLCSHVNEKIGNIKKTLSLRNCGQEPTLKTVLNKIGDEIIVINELLNKLELEIQYQEQTNNSLKELCESLEEDYKDIEHLKENVPSHLPQVTVTQSCVKGSDLDPEEPIKVEEPEPVKKPPKE
B2: His–Ska3 (N), tag cleaved (domain or fragment)
chain: MDPIRSFCGKLRSLASTLDCETARLQRALDGEESDFEDYPMRILYDLHSEVQTLKDDVNILLDKARLENQEGIDFIKATKVLMEKNSMDIMKIREYFQKYGYSPRVKKNSVHEQEAINSDPELSNCENFQKTDVKDDLSDPPVASSCISEKSPRSP

Legend:
Assay in all cases: co-purification
[1] = biological target: B2
[2] = biological target: T1, His–Ska1 (full length), tag cleaved (human, UniProt Q96BD8 1-255)
T1 sequence: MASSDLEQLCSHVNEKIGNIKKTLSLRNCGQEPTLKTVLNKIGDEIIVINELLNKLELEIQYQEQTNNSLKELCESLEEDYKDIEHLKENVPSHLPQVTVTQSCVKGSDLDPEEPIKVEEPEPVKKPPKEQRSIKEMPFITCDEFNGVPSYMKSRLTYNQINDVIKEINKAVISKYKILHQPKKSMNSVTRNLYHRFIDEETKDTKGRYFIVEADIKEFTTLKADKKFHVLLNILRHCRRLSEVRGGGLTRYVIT

[3] = biological target: T2, GST–Ska1 (full length), tag cleaved (human, UniProt Q96BD8 1-255)
T2 sequence: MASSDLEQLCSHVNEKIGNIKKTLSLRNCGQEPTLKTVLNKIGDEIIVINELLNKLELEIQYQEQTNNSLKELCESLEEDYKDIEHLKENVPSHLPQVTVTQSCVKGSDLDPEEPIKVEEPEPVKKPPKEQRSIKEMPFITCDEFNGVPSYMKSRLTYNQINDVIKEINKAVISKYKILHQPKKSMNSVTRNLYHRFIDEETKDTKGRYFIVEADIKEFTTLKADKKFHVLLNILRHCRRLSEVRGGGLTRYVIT

[4] = biological target: T2, GST–Ska1 (full length), tag cleaved; remark: listed apart in the source
[5] = biological target: T1, His–Ska1 (full length), tag cleaved; remark: listed apart in the source
[6] = biological target: B1
[7] = biological target: B2; remark: listed apart in the source

binding result [4]: binds
B3: untagged Ska2 (natural protein)
chain: MEAEVDKLELMFQKAESDLDYIQYRLEYEIKTNHPDSASEKNPVTLLKELSVIKSRYQTLYARFKPVAVEQKESKSRICATVKKTMNMIQKLQKQTDLELSPLTKEEKTAAEQFKFHMPDL

binding result [5]: binds
binding result [6]: binds
binding result [7]: binds
B4: GST–Ska2 (full length), tag cleaved (natural protein)
chain: MEAEVDKLELMFQKAESDLDYIQYRLEYEIKTNHPDSASEKNPVTLLKELSVIKSRYQTLYARFKPVAVEQKESKSRICATVKKTMNMIQKLQKQTDLELSPLTKEEKTAAEQFKFHMPDL

More lines, now with the values behind:

Binder: B1
binding result [1]: binds

Binder: B2
binding result [2]: binds
binding result [3]: binds
